From PMC6701479

Experiments:
[1] = target: H3K9me3 containing chromatin fibers (12 × 601 arrays with recombinant human histone octamer) (human); experiment: single-molecule TIRF (smTIRF); chromatin fibers immobilised; 3 nM Atto 532-labeled HP1α with 50 nM KAP1; 50 mM Hepes, 130 mM KCl, 10% glycerol; 22°C
[2] = target: H3K9me3 containing chromatin fibers (12 × 601 arrays with recombinant human histone octamer) (human); experiment: single-molecule TIRF (smTIRF); chromatin fibers immobilised; 3 nM Atto 532-labeled HP1α with 400 nM KAP1; 50 mM Hepes, 130 mM KCl, 10% glycerol; 22°C
[3] = target: H3K9me3 containing chromatin fibers (12 × 601 arrays with recombinant human histone octamer) (human); experiment: single-molecule TIRF (smTIRF); chromatin fibers immobilised; 3 nM Atto 532-labeled HP1α with 100 nM KAP1; 50 mM Hepes, 130 mM KCl, 10% glycerol; 22°C
[4] = target: H3K9me3 containing chromatin fibers (12 × 601 arrays with recombinant human histone octamer) (human); experiment: single-molecule TIRF (smTIRF); chromatin fibers immobilised; 3 nM Atto 532-labeled HP1α with 200 nM KAP1; 50 mM Hepes, 130 mM KCl, 10% glycerol; 22°C

Chain of Atto 532–labeled HP1α (P45973 whole entry): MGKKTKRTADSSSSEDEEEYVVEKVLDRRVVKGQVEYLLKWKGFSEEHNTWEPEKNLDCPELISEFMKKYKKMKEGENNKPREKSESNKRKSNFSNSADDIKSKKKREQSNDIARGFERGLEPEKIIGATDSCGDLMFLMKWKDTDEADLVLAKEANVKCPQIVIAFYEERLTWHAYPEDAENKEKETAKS

## Atto 532–labeled HP1α (from UniProt P45973 1-191) (natural protein)
[1]
  kon: 1.03e+06 M⁻¹ s⁻¹
  τ (off,1): 0.29 s
  τ (off,2): 3.64 s
[2]
  kon: 770000 M⁻¹ s⁻¹
  τ (off,1): 0.23 s
  τ (off,2): 5.03 s
[3]
  kon: 1.42e+06 M⁻¹ s⁻¹
  τ (off,1): 0.28 s
  τ (off,2): 5.79 s
[4]
  kon: 1.43e+06 M⁻¹ s⁻¹
  τ (off,1): 0.27 s
  τ (off,2): 5.47 s
